Columns and labels:
[1] = biological target: T1, rabbit alpha2-Antiplasmin (rabbit (Oryctolagus cuniculus)); experiment: ELISA, coated antigen, 2nd exp.
T1 construct: Made in house in HEK293 cells, purified by Ni-IMAC and SEC (a His tag is implied but not described); also called rabbit A2AP; Oryctolagus cuniculus A2AP
T1 chain: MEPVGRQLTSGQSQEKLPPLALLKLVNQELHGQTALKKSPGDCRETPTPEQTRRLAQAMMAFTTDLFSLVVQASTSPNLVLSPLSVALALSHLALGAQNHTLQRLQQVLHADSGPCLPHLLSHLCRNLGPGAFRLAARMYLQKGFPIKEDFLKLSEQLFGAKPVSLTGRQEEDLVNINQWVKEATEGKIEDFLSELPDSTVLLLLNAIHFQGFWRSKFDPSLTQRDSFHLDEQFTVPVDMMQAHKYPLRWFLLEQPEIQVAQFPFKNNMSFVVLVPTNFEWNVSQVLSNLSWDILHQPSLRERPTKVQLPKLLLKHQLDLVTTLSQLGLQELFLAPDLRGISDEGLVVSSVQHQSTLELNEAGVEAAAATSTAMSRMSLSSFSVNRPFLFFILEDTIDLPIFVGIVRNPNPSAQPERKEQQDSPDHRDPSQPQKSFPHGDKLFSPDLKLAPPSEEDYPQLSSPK
Protocol: (§1) A standard ELISA format was used for analyzing the binding affinity of Fabs of this invention to human and rabbit alpha-2-Antiplasmin, respectively. Antigens were coated to black 384 well Maxisorp microtiter plates (Nunc; catalogue number 460518), diluted to a concentration of 1 μg/ml in 1× Coating Buffer (Candor Bioscience; catalogue number 121125). Plates were incubated overnight at 4° C. After overnight incubation, plates were washed 2× with 50 μl/well using PBS+0.05% Tween 20. Following this, 50 μl/well of blocking buffer (Smart Block; Candor Bioscience; catalogue number 113500) was added and the plates were incubated for 1 hour at room temperature. Afterwards, plates were washed for 3× using […] PBS+0.05% Tween 20 buffer. Fabs of this invention were added at different concentrations in a final volume of 30 μl/well. Plates were incubated for 1 hour at room temperature. Following this incubation step, plates were washed for 3× using 50 μl/well of a PBS+0.05% Tween 20 buffer. For the detection of bound Fabs and full-length antibodies, the anti-Human Lambda Light Chains (Bound and Free)—Peroxidase antibody (Sigma; catalogue number A5175) was diluted by the factor of 1:10.000 in 10% Blocking Buffer. […]
(§2) For measurement, the Infinite f500 reader (Tecan) was used. Measurement mode: Fluorescence; Top reading; Ex 535 nm; Em 590 nm. […]

human alpha2-Antiplasmin [2] = biological target: T2, human alpha2-Antiplasmin (human, UniProt P08697 40-491); experiment: ELISA, coated antigen, 2nd exp.
T2 construct: Bought (antibodies online, ABIN2544306); also called human A2AP; a2AP
T2 sequence: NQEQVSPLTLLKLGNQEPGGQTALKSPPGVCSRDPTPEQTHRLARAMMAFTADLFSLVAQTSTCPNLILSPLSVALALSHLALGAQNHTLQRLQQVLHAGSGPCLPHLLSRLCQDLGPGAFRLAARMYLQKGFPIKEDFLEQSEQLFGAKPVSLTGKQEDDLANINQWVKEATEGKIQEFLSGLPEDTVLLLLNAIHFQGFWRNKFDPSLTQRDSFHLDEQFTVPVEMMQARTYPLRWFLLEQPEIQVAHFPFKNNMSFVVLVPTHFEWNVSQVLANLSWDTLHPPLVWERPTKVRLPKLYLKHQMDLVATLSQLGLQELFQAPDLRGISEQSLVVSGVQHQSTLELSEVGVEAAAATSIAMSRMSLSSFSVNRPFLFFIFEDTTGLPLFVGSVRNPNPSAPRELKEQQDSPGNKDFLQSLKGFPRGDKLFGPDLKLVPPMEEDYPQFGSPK
Protocol: as §1, §2

[3] = biological target: T3, cynomolgus alpha2-Antiplasmin (cynomolgus (Macaca fascicularis), UniProt P08697 28-491 (human entry)); experiment: ELISA, coated antigen (FIG. 6.1 legend)
T3 construct: Made in house in the same way as the rabbit protein; also called cynomolgus A2AP; Macaca fascicularis A2AP
T3 chain: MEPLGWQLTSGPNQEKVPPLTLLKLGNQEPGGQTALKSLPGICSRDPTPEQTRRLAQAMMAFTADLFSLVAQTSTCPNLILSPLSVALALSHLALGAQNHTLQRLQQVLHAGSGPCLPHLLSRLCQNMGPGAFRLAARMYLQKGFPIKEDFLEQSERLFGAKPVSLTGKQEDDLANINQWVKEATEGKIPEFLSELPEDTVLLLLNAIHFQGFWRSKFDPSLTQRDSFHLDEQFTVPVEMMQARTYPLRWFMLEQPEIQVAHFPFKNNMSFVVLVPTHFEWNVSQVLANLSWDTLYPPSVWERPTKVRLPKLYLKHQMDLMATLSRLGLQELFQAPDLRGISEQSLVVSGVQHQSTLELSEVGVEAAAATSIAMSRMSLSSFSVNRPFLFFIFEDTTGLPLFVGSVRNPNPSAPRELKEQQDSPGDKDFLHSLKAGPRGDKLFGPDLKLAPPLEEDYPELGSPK

[4] = biological target: T1, rabbit alpha2-Antiplasmin; experiment: ELISA (Example 3): antigen coated at 1 ug/ml, detection with anti-human lambda light chain-peroxidase and Amplex Red, RFU [right panel]
Protocol: as §1
For measurement, the Infinite f500 reader (Tecan) was used. Measurement mode: Fluorescence; Top reading; Ex 535 nm; Em 590 nm.

[5] = biological target: T1, rabbit alpha2-Antiplasmin; experiment: SPR Biacore T200, antibody captured on protein G chip, A2AP as analyte, 25 C
[6] = biological target: T3, cynomolgus alpha2-Antiplasmin; experiment: as above
human alpha2-Antiplasmin [7] = biological target: T2, human alpha2-Antiplasmin; experiment: as above

EC50 [1]: 6.07 nM
EC50 (human alpha2-Antiplasmin [2]): 100 nM
EC50 [3]: 99 nM
EC50 (read off the curve) [4]: ~6 nM
Kd [5]: 43 nM
Kd [6]: 100 nM
Kd (human alpha2-Antiplasmin [7]): 180 nM
B1: TPP-12387 hIgG1 (antibody, V domains shown)
VH: EVQLLESGGGLVQPGGSLRLSCAASGFTFDDYAMSWVRQAPGKGLEWVSAIGTGGGTYYADSVKGRFTISRDNSKNTLYLQMNSLRAEDTAVYYCAREYYDSSGYYHLDYWGQGTLVTVSS
VL: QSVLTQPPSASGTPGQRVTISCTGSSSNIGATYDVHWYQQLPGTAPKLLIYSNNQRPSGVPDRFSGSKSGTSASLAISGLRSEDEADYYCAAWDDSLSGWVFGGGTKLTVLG
notes: Fully human IgG1 lambda from the BioInvent n-CoDeR Fab lambda library; parental lead antibody
